This note sets out measurements from patent US20260256936A1, “BIOACTIVE CONJUGATES, PREPARATION METHOD AND USE THEREOF” (priority 2023, published 2026).

Common to all, as to test: cell-based or functional assay
For assay [1], the target named is T1, B7H3 on B7H3-expressing cells (NCI-H358, NCI-H1048) (human, UniProt Q5ZPR3 29-534).
T1 sequence (looked up): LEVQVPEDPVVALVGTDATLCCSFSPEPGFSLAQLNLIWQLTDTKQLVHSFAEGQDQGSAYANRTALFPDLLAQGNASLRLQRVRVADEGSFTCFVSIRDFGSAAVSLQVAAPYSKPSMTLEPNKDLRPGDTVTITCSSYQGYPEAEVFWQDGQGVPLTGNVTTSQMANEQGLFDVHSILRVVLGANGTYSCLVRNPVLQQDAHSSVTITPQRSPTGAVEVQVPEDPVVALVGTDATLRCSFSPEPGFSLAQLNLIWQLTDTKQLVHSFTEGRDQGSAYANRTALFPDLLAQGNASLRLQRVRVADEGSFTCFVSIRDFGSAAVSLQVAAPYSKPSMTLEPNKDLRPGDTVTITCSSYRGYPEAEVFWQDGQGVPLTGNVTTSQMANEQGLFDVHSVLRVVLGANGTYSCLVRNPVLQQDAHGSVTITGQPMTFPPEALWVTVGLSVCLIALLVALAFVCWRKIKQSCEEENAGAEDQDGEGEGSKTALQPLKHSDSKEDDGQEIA

Assay [2] has as its target T2, CLL1 on CLL1-expressing cells (U937, HL60) (human, UniProt Q5QGZ9 1-265).
T2 sequence (looked up): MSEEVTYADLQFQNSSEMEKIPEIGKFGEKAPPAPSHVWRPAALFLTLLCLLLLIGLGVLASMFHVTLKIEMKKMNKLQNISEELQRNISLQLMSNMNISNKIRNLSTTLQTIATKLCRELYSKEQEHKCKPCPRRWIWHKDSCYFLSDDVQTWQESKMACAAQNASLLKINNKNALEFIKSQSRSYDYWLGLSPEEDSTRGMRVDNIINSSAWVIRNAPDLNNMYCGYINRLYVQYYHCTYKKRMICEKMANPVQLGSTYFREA

The target in assay [3] is T2, CLL1 on CLL1-expressing cells (U937, …). This is another data set of the same source.
For assay [4] the target is unchanged. The source holds these as a separate data set.
Assay [5] shares this target. This is another data set of the same source.
The target is the same in assay [6]. This is another data set of the same source.

Read-outs that look alike come from different tables or passages of the source.

B1: ADC3-B (antibody, human IgG1, kappa, V domains shown)
VH: QVQLVQSGAEVKKPGSSVKVSCKASGYTFTNYVMHWVRQAPGQGLEWMGYINPYNDDVKYNEKFKGRVTITADESTSTAYMELSSLRSEDTAVYYCARWGYYGSPLYYFDYWGQGTLVTVSS
VL: EIVLTQSPATLSLSPGERATLSCRASSRLIYMHWYQQKPGQAPRPLIYATSNLASGIPARFSGSGSGTDFTLTISSLEPEDFAVYYCQQWNSNPPTFGQGTKVEIKR
modifications: conjugator-linker-payload on cysteine thiols after TCEP reduction; positions not given
As to B1, in assay [1], the “EC50 (nM) direct cellular killing, NCI-H358” value was 0.1 nM and the “EC50 (nM) direct cellular killing, NCI-H1048” value is 0.2 nM.

B2: ADC3-A (antibody, human IgG1, kappa, V domains shown)
VH: EVQLVQSGAEVKKPGASVKVSCKASGYSFTDYYMHWVRQAPGQGLEWIGRINPYAGAAFYSQNFKDRVTLTVDTSTSTAYLELSSLRSEDTAVYYCAIERGADLEGYAMDYWGQGTLVTVSS
VL: DIQMTQSPSSLSASVGDRVTITCRASQSVSTSSYNYMHWYQQKPGKPPKLLIKYASNLESGVPSRFSGSGSGTDFTLTISSLQPEDFATYYCQHSWEIPLTFGQGTKVEIKR
modifications: conjugator-linker-payload on cysteine thiols after TCEP reduction; positions not given
With B2, the “EC50 (nM) direct cellular killing, HL60” value was found to be 10.9 nM in assay [2]; 1.4 nM in assay [3]; 6.5 nM in assay [4]; 4.8 nM in assay [5]; 6.3 nM in assay [6]. In addition, the “EC50 (nM) direct cellular killing, U937” value stood at 0.7 nM in assay [2], 0.7 nM in assay [3] and 0.8 nM in assay [6].

B3: ADC3-15 (antibody, human IgG1, kappa, V domains shown)
VH: B2 VH
VL: B2 VL
modifications: conjugator-linker-payload on cysteine thiols after TCEP reduction; positions not given
On to B3, for which, in assay [2], the “EC50 (nM) direct cellular killing, HL60” value came to 6.5 nM and the “EC50 (nM) direct cellular killing, U937” value is 0.3 nM.

B4: ADC3-6 (antibody, human IgG1, kappa, V domains shown)
VH: B2 VH
VL: B2 VL
modifications: conjugator-linker-payload on cysteine thiols after TCEP reduction; positions not given
Regarding B4, in assay [4], the “EC50 (nM) direct cellular killing, HL60” value is 0.4 nM and the “EC50 (nM) direct cellular killing, U937” value came to 0.6 nM.
